From patent US20220162261A1 (published 2022)
Read-outs that look alike come from different tables or passages of the source. Bridge positions count the residues as written; N and C are the ends. Square brackets hold non-standard residues; d marks the D form. Phe(4-tBu) = CC(C)(C)c1ccc(C[C@H](N)C(=O)O)cc1; 2Nal = N[C@@H](Cc1ccc2ccccc2c1)C(=O)O; NMeR = CN[C@@H](CCCNC(=N)N)C(=O)O; β3hE = N[C@@H](CCC(=O)O)CC(=O)O; Pen = CC(C)(S)[C@H](N)C(=O)O

Key:
[1] = target: human α4β7 integrin on cells (human) (UniProt P13612); test: PBMC memory T cell adhesion
[2] = target: human α4β1 integrin on cells (human) (UniProt P13612); test: Jurkat cell adhesion to VCAM-1
[3] = target: mouse α4β7 integrin on TK1 cells (mouse) (UniProt Q00651); test: TK1 cell adhesion to MAdCAM-1
[4] = target: rh integrin α4β7 (R&D Systems #5397-A30) (human) (UniProt P13612); test: competition ELISA vs MAdCAM-1
[5] = target: human α4β7 integrin on cells (human) (UniProt P13612); test: RPMI8866 cell adhesion to MAdCAM-1
[6] = target: α4β1 (R&D Systems #5668-A4) (UniProt P13612); test: competition ELISA vs VCAM-1
[7] = target: human α4β7 integrin on cells (human) (UniProt P13612); test: FACS, human whole blood, CD19+ B cells
[8] = target: human α4β7 integrin on cells (human) (UniProt P13612); test: FACS, human whole blood, CD8 memory T cells
[9] = target: human α4β7 integrin on cells (human) (UniProt P13612); test: FACS, human whole blood, Neutrophils
[10] = target: human α4β7 integrin on cells (human) (UniProt P13612); test: FACS, human whole blood, CD8 naïve T cells
[11] = target: human α4β7 integrin on cells (human) (UniProt P13612); test: FACS, human whole blood, NK cells CD16+ 56+
[12] = target: human α4β7 integrin on cells (human) (UniProt P13612); test: FACS, human whole blood, Monocytes
soluble α4β7 integrin [13] = target: soluble α4β7 integrin (UniProt P13612); test: SPR, binder on streptavidin chip, soluble α4β7
[14] = target: human α4β7 integrin on cells (human) (UniProt P13612); test: FACS, human whole blood, CD4 naïve T cells
[15] = target: human α4β7 integrin on cells (human) (UniProt P13612); test: FACS, human whole blood, Eosinophils
[16] = target: human α4β7 integrin on cells (human) (UniProt P13612); test: FACS, human whole blood, CD4 memory T cells
[17] = target: human α4β7 integrin on cells (human) (UniProt P13612); test: FACS, human whole blood, Basophils
[18] = target: T1, rh integrin α4β7 (R&D Systems #5397-A30) (human, UniProt P13612 34-970; P26010 20-723); test: competition ELISA vs MAdCAM-1
T1 construct: bought; coated on a nickel coated plate; also called immobilized α4β7; immobilized α4β7 integrin protein

[19] = target: T2, human α4β7 integrin on cells (human, UniProt P13612 34-1032; P26010 20-798); test: RPMI8866 cell adhesion to MAdCAM-1
T2 construct: whole, on cells; also called α4β7 cell (Hu); RPMI8866 cells

[20] = target: T3, human α4β1 integrin on cells (human, UniProt P13612 34-1032; P05556 21-798); test: Jurkat cell adhesion to VCAM-1
T3 construct: whole, on cells; also called α4β1 cell; Jurkat cells

[21] = target: T4, mouse α4β7 integrin on TK1 cells (mouse, UniProt Q00651 41-1039; P26011 20-806); test: TK1 cell adhesion to MAdCAM-1
T4 construct: whole, on cells; also called α4β7 cell (Mu); Cell Adhesion α4β7 Mouse

[22] = target: T5, α4β1 (R&D Systems #5668-A4) (UniProt P13612 34-970; P05556 21-728, limits assumed); test: competition ELISA vs VCAM-1
T5 construct: bought; also called soluble α4β1

[23] = target: T1, rh integrin α4β7 (R&D Systems #5397-A30); test: competition ELISA vs MAdCAM-1; acetate salt
[24] = target: T2, human α4β7 integrin on cells; test: RPMI8866 cell adhesion to MAdCAM-1; acetate salt
[25] = target: T2, human α4β7 integrin on cells; test: PBMC memory T cell adhesion; acetate salt
[26] = target: T4, mouse α4β7 integrin on TK1 cells; test: TK1 cell adhesion to MAdCAM-1; acetate salt
[27] = target: T5, α4β1 (R&D Systems #5668-A4); test: competition ELISA vs VCAM-1; acetate salt
[28] = target: T2, human α4β7 integrin on cells; test: PBMC memory T cell adhesion
[29] = target: T1, rh integrin α4β7 (R&D Systems #5397-A30); test: competition ELISA vs MAdCAM-1; remark: listed apart in the source
[30] = target: T2, human α4β7 integrin on cells; test: PBMC memory T cell adhesion; remark: listed apart in the source
[31] = target: T3, human α4β1 integrin on cells; test: Jurkat cell adhesion to VCAM-1; remark: listed apart in the source
[32] = target: T5, α4β1 (R&D Systems #5668-A4); test: competition ELISA vs VCAM-1; remark: listed apart in the source
[33] = target: T2, human α4β7 integrin on cells; test: RPMI8866 cell adhesion to MAdCAM-1; remark: listed apart in the source
[34] = target: T4, mouse α4β7 integrin on TK1 cells; test: TK1 cell adhesion to MAdCAM-1; remark: listed apart in the source
soluble α4β7 integrin [35] = target: T6, soluble α4β7 integrin (UniProt P13612 34-970; P26010 20-723, limits assumed); test: SPR, binder on streptavidin chip, soluble α4β7
T6 construct: analyte of the SPR experiment

T4 sequence (Q00651 41-1039, chain 1 of 2): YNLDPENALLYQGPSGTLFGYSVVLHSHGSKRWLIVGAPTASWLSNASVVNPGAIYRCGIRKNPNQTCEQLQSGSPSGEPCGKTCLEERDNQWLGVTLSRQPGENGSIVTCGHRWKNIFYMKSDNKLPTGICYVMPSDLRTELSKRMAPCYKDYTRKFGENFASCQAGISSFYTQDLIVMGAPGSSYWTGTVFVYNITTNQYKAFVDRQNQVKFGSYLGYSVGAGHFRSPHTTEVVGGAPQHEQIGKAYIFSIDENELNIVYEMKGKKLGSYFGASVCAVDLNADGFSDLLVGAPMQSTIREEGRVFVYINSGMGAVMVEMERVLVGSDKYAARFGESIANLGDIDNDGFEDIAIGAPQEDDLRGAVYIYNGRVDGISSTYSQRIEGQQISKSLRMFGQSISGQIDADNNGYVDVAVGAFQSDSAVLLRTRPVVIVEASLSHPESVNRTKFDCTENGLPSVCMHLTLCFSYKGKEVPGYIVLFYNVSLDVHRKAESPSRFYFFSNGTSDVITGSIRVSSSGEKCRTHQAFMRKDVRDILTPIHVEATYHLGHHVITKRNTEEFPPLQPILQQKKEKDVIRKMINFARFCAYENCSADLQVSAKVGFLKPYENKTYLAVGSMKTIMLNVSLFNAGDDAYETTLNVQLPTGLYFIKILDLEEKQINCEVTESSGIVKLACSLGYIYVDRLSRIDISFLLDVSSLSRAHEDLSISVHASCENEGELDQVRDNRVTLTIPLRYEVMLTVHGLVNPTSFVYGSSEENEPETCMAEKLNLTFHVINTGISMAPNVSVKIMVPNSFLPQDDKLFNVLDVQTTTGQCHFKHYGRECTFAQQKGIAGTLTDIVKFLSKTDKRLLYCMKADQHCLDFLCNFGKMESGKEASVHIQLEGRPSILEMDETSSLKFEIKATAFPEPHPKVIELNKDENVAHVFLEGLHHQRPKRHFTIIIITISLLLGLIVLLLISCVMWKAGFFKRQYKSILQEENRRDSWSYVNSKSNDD
T4 sequence (P26011 20-806, chain 2 of 2): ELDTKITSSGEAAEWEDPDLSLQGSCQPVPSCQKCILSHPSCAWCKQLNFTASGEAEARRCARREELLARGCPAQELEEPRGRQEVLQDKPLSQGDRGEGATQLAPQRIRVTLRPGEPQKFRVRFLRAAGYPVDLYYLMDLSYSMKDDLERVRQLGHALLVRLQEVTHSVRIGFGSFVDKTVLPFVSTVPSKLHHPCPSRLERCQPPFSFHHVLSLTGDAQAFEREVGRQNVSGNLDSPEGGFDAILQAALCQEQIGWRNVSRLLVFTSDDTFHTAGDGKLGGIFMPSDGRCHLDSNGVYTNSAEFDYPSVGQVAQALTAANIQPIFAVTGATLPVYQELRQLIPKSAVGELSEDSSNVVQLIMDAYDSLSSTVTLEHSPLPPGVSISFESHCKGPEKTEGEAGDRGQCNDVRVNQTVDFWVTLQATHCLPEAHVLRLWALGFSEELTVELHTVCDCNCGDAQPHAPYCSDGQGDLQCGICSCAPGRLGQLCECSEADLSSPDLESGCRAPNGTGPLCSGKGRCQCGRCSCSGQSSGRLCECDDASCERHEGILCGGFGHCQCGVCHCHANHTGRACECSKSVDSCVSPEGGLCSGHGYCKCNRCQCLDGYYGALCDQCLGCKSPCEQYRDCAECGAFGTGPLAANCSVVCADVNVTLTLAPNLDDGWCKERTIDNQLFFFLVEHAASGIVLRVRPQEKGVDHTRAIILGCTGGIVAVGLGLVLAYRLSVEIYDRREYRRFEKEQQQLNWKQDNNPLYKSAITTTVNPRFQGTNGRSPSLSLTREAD
Sequence of mouse α4β7 integrin on TK1 cells (mouse) (Q00651 41-1039, chain 1 of 2): as the sequence (Q00651 41-1039, chain 1 of 2) above
Sequence of mouse α4β7 integrin on TK1 cells (mouse) (P26011 20-806, chain 2 of 2, further chain): as the sequence (P26011 20-806, chain 2 of 2) above

B1: SEQ ID NO: 210 (peptide)
peptide: Ac-[Pen][NMeR]SDTL[Pen][2Nal]E[dK]-NH2
modifications: disulfide 1-7
SMILES: CC(=O)N[C@@H]1C(=O)N(C)[C@@H](CCCNC(=N)N)C(=O)N[C@@H](CO)C(=O)N[C@@H](CC(=O)O)C(=O)N[C@@H]([C@@H](C)O)C(=O)N[C@@H](CC(C)C)C(=O)N[C@H](C(=O)N[C@@H](Cc2ccc3ccccc3c2)C(=O)N[C@@H](CCC(=O)O)C(=O)N[C@H](CCCCN)C(N)=O)C(C)(C)SSC1(C)C
B1 showed an IC50 [1] of 517 nM, an IC50 [2] of over 100000 nM and an IC50 [3] of 60 nM. The IC50 [4] was 11 nM, the IC50 [5] was 40 nM and the IC50 [6] was 200 nM.

B2: SEQ ID NO: 212 (peptide)
peptide: Ac-[Pen][NMeR]SDTL[Pen][2Nal]E[dK]-NH2
modifications: disulfide 1-7; also: dimer (…)2 DIG, attachment not given here
Binder B2 has an IC50 [2] of over 100000 nM, an IC50 [3] of 2.5 nM and an IC50 [4] of 2 nM. The IC50 [5] was 2.5 nM and the IC50 [6] was 70 nM.

B3: biotin-labeled vedolizumab antibody (antibody, INN chains, looked up, V domains shown)
VH: QVQLVQSGAEVKKPGASVKVSCKGSGYTFTSYWMHWVRQAPGQRLEWIGEIDPSESNTNYNQKFKGRVTLTVDISASTAYMELSSLRSEDTAVYYCARGGYDGWDYAIDYWGQGTLVTVSS
VL: DVVMTQSPLSLPVTPGEPASISCRSSQSLAKSYGNTYLSWYLQKPGQSPQLLIYGISNRFSGVPDRFSGSGSGTDFTLKISRVEAEDVGVYYCLQGTHQPYTFGQGTKVEIKR
modifications: biotin label
Work on B3 yielded a Percent positive staining [7] of 85%, a Percent positive staining [8] of 36% and a Percent positive staining [9] of 0.45%. It also gave a Percent positive staining [10] of 53%, a Percent positive staining [11] of 42% and a Percent positive staining [12] of 7%. It also gave a Half-life for dissociation (soluble α4β7 integrin [13]) of 0.717 h, a Kd (soluble α4β7 integrin [13]) of 59.5 nM and a koff (soluble α4β7 integrin [13]) of 0.000266 s⁻¹. For the same binder, the kon (soluble α4β7 integrin [13]) was 4470 M⁻¹ s⁻¹, the Percent positive staining [14] was 55% and the Percent positive staining [15] was 91%. For the same binder, the Percent positive staining [16] was 22% and the Percent positive staining [17] was 86%.

B4: SEQ ID NO: 33 (peptide)
peptide: Ac-[Pen][NMeR]SDTL[Pen][2Nal][dE][dK]-NH2
modifications: disulfide 1-7; also: dimer (…)2 DIG, attachment not given here
Work on B4 yielded an IC50 [2] of over 100000 nM.

B5: SEQ ID NO: 67 (peptide)
peptide: Ac-[Pen][NMeR]SDTL[Pen]WE[dK]-NH2
modifications: disulfide 1-7; not fully specified (residue 10); printed as (Ac Pen N-Me-R S D T L Pen W E k NH2)2 DIG, disulfide Pen-Pen; also: homodimer via DIG linker
notes: also called Peptide Z
With B5 the IC50 [18] was at most 10 nM, the IC50 [19] was at most 10 nM and the IC50 [20] was over 100000 nM. The IC50 [21] was at most 10 nM and the IC50 [22] was over 100 nM.

B6: SEQ ID NO: 132 (peptide)
peptide: Ac-[Pen][NMeR]SDTL[Pen][Phe(4-tBu)][β3hE][dK]-NH2
modifications: disulfide 1-7; not fully specified (residue 10); printed as (Ac Pen N-Me-R S D T L Pen F(4tBu) b-H-E k NH2)2 DIG, disulfide Pen-Pen; also: homodimer, two subunits joined by DIG linker
notes: the second listing is the acetate salt
Binder B6 has an IC50 [23] of at most 10 nM, an IC50 [24] of at most 10 nM and an IC50 [25] of at most 10 nM. It also gave an IC50 [26] of at most 10 nM, an IC50 [18] of at most 10 nM and an IC50 [27] of over 500 nM. It also gave an IC50 [19] of at most 10 nM, an IC50 [20] of over 100000 nM and an IC50 [21] of at most 10 nM. It also gave an IC50 [28] of at most 10 nM.

B7: SEQ ID NO: 68 (peptide)
peptide: Ac-[Pen][NMeR]SDTL[Pen]W[dE][dK]-NH2
modifications: disulfide 1-7; not fully specified (residue 10); printed as (Ac Pen N-Me-R S D T L Pen W e k NH2)2 DIG, disulfide Pen-Pen; also: homodimer via DIG linker
With B7 the IC50 [18] was at most 10 nM, the IC50 [19] was over 25 nM and the IC50 [20] was over 100000 nM. It also gave an IC50 [21] of at most 10 nM, an IC50 [22] of over 500 nM and an IC50 [28] of over 100 nM.

B8: SEQ ID NO: 216 (peptide)
peptide: Ac-[Pen][NMeR]SDTL[Pen]W[dE][dK]-OH
modifications: disulfide 1-7; not fully specified (residue 10); printed as (Ac Pen N-Me-R S D T L Pen W e k OH)2 DIG, disulfide Pen-Pen; also: dimer, two subunits joined by DIG linker
notes: also called peptide 216
Binder B8 has an IC50 [29] of 2.8 nM, an IC50 [30] of 14.5 nM and an IC50 [31] of over 100000 nM. The IC50 [32] was 247 nM, the IC50 [33] was 4.2 nM and the IC50 [34] was 1 nM.

B9: SEQ ID NO: 78 (peptide)
peptide: Ac-[Pen][NMeR]SDTL[Pen]WE[dK]-OH
modifications: disulfide 1-7; not fully specified (residue 10); printed as (Ac Pen N-Me-R S D T L Pen W E k OH)2 DIG, disulfide Pen-Pen; also: homodimer: two subunits linked by DIG via D-Lys10 side chain
B9 showed an IC50 [18] of at most 10 nM, an IC50 [19] of at most 10 nM and an IC50 [20] of over 100000 nM. For the same binder, the IC50 [21] was at most 10 nM and the IC50 [22] was over 100 nM.

B10: SEQ ID NO: 209 (peptide)
peptide: XRSDTLXWK
modifications: (Ac Pen N-Me-R S D T L Pen W k NH2)2 DIG; disulfide Pen-Pen
notes: also called peptide 209
B10 was tested, and the IC50 [29] was 2.3 nM, the IC50 [30] was 260 nM and the IC50 [31] was over 100000 nM. For the same binder, the IC50 [32] was 368 nM, the IC50 [33] was 24 nM and the IC50 [34] was 51 nM.

B11: Peptide Z-biotin (peptide)
peptide: Ac-[Pen][NMeR]SDTL[Pen]WE[dK]-NH2
modifications: disulfide 1-7; not fully specified (residue 10); printed as (Ac-Pen-(N-Me-Arg)-S-D-T-L-Pen-W-E-k-NH2)2-DIG; also: homodimer: two subunits joined by DIG linker, biotin label, attachment not given here
B11 gave a Half-life for dissociation (soluble α4β7 integrin [35]) of 3.53 h, a Kd (soluble α4β7 integrin [35]) of 52.1 nM and a koff (soluble α4β7 integrin [35]) of 5.46e-05 s⁻¹.
